Laboratory results: US20230159624A1

Columns and labels:
[1] = molecular target: MT1-MMP (R&D, 918-MP-010) (UniProt P50281); test: enzyme inhibition kinetics with fluorescent substrate Mca-K-P-L-G-L-Dpa-A-R-NH2, LS-55 spectrofluorimeter
[2] = molecular target: MT1-MMP (R&D, 918-MP-010) (UniProt P50281); test: enzyme inhibition kinetics with fluorescent substrate, LS-55 spectrofluorimeter

- Ki^app [1]: 178 nM
- Ki^app [2]: > 150 nM
Substance: Wild Type TIMP-1 (inhibitory domain) (from UniProt P01033 24-149)
